Reference: the supplement of paper PMC10567573

B1: WDFY1 (parent)
chain: LLIPKEDGVITASEDRTIRVWLKR
B2: ZNF207 (parent)
chain: FQPQPVQPQQGYIPPMAQPGLPPV

Variants of: B1
Test: protein stability index of a GFP-peptide fusion (GPS, HEK-293T) (PSI 1-6); higher = more stable
Conditions: c terminus: a fixed tail appended
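Further: lentivirally expressed fusions sorted by FACS into six bins by GFP to DsRed ratio, PSI derived from sequencing read proportions per bin multiplied by bin number.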

Protein stability index of substitutions, site by site:
P4: W 2.35; A 2.13; M 1.88; F 2.78; S 2.54; Y 1.51; I 1.52; C 2.28; T 1.89; L 1.79; N 2.19; V 2.67; G 1.74; D 2.82; R 2.46; Q 1.5; H 1.75
I3: G 2.97; L 2.76; C 2.24; E 3.36; A 3.62; H 2.45; N 3.77; W 1.87; M 1.95; Y 1.89; D 3.09; R 2.71; F 2.04; Q 2.66; K 3.17; T 2.91
L1: H 2.83; K 2.74; I 2.1; Y 2.55; N 3.1; R 2.73; C 2.35; T 3.62; V 2.56; M 3.12; A 2.5; W 1.73; D 3.54; S 2.93; E 3.2; F 2.24; P 4.03; Q 2.94
K5: G 3.24; C 2.26; H 1.65; D 2.41; E 1.58; F 1.4; A 2.13
L2: C 2.5; W 1.76; H 1.68; G 2.37; R 1.93; K 3.31; Q 3.1; A 2.88; E 3.8; V 2.69; M 2.27; D 3.47; T 2.08; Y 1.82; F 1.25; N 2.77; S 2.78; I 2.22; P 2.66

Variants of: B2
Test: as above
Conditions: c terminus: a fixed tail appended

Protein stability index of substitutions, site by site:
G11: S 2.8; C 2.18; Y 2.18; F 2.45; L 2.65; W 2.19; A 3.03; Q 3.18; K 2.89; M 2.66; H 3.21; R 3.21; P 2.74; I 2.29; V 2.56; D 3.63; E 3.69; N 2.93; T 2.6
M16: W 2.06; G 3.49; E 3.54; Y 2.82; I 3.3; D 3.7; K 3.21; S 3.5; F 2.43; V 3.64; N 3.48; C 3.08; R 2.97
V24: F 2.35; L 2.44; E 3.75; I 3.26; Y 2.4; G 3.1; Q 3.33; H 2.71; N 2.67; S 2.93; K 2.92; R 3.38; C 2.95; M 2.8; W 1.8; D 3.9
Y12: V 3.86; C 3.55; L 3.81; G 3.53; D 3.73; P 3.6; Q 4.03; I 3.29; N 3.77; F 2.81; W 2.6; S 3.81; K 3.7; T 3.69; H 3.54; E 3.77; A 3.75; M 3.72; R 3.66
L21: R 3.38; V 2.73; G 3.24; W 2.26; K 3.48; E 4.13; M 3.68; D 4.12; F 2.66; C 3.64
P14: R 2.81; A 2.96; W 1.98; I 2.63; S 3.08; K 2.83; F 2.93; H 2.75; Q 2.74; G 2.79; D 3.37; M 2.88; N 2.5; V 2.9; T 2.75; L 2.52; E 2.86; C 2.61; Y 2.65
P23: I 2.65; C 2.91; H 2.77; T 2.89; A 3.4; E 3.07; R 3.02; W 1.7; Q 3.14; G 2.27; Y 2.42; K 2.95; N 2.69; L 3.04; D 3.28; V 3.13; S 3.19; M 2.9; F 1.88
Q10: H 2.62; L 2.16; G 3.39; P 3.07; A 2.84; Y 2.64; R 2.79; K 2.98; F 2.31; E 3.1; N 3.28; C 2.5; T 3.34; D 3.54; V 2.04; I 2.12; M 2.81; W 1.95; S 2.86
Q18: N 3.11; K 2.88; C 2.37; L 2.91; S 2.95; M 2.7; W 2.03; R 3.37
P22: C 2.38; Y 2.29; R 2.88; V 2.72; Q 3.33; S 2.13; G 2.74; A 3.37; D 3.06; M 2.4; T 2.7; L 2.99; E 3.08; K 3.4; N 2.74; W 1.85; F 2.54; I 2.68; H 2.83
I13: R 3.16; E 3.71; D 3.57; Q 3.59; A 3.8; G 3.29; K 2.85; F 3.4; V 3.44; W 2.56; C 3.33; H 3.54; M 2.99; L 3.52; Y 2.88; S 3.58; N 3.17
P8: W 2.31; S 2.97; V 2.92; Y 2.53; T 2.91
P19: S 3.19; L 2.7; G 3.12; C 3.1; A 3.32; F 2.38; H 3.19
G20: C 2.93; E 3.23; R 3.33; M 2.75; D 2.89; L 3.15; W 1.7; S 3.24; V 3.72; Q 3.46; K 2.27
Q9: A 3.35; I 2.89; F 2.34; Y 2.32; T 3.01; N 2.72; C 2.77; L 2.54; G 2.74; E 3.45; M 2.88; V 3.61; H 3.24; R 3.26; D 3.59; K 2.91; W 1.88; S 3.43
P15: F 2.3; T 3.14; L 2.72; I 2.17; S 2.87; C 2.45; E 2.96; Y 2.66; H 2.74; N 3.45; Q 3.09; K 2.81; D 3.04; R 2.97; G 3.07; W 1.73; M 2.62; V 3.23; A 3.13
A17: L 2.85; C 3.27; D 3.35; E 3.42; H 3.12; Y 2.25; N 3.59; F 2.5; W 1.93; S 3.86; V 2.96; I 3.17; Q 3.39; T 3.22; G 2.98; K 3.04; R 3.15; P 3.04; M 3.4
